Test results: US20230293647A1

Experiments:
[1] = target: recombinant full length SARS-CoV-2 spike protein (SARS-CoV-2) (UniProt P0DTC2)
[2] = target: FcγR on K562 cells (reported to express RNA for FcγRIIa and IIIa/b)

| Substance | EC50 (read off the curve) [1] [nM] | EC50 (read off the curve) [2] [nM] |
| --- | --- | --- |
| CR3022 scFv-ACE2-Fc (from UniProt Q9BYF1 18-740) (Fc fusion) | 0.06 |  |
| ACE2-CR3022 scFv-Fc (from UniProt Q9BYF1 18-740) (Fc fusion) | 0.09 |  |
| Inactive ACE2 (HH:NN) (18-740)-Fc (Fc fusion) |  | 40 |
